{"source": "patent US20110166062A1", "about": "(INDIANA UNIVERSITY RESEARCH AND TECHNOLOGY, published 2011)", "binders": {"B1": {"name": "mt-282 (peptide)", "peptide": "Y[Aib]EGTFTSDK(Myristoyl)SIYLDKQAA[Aib]EFVNWLLAG-NH2", "modifications": "N-terminus assumed", "SMILES": "CCCCCCCCCCCCCC(=O)NCCCC[C@H](NC(=O)[C@H](CC(=O)O)NC(=O)[C@H](CO)NC(=O)[C@@H](NC(=O)[C@H](Cc1ccccc1)NC(=O)[C@@H](NC(=O)CNC(=O)[C@H](CCC(=O)O)NC(=O)C(C)(C)NC(=O)[C@@H](N)Cc1ccc(O)cc1)[C@@H](C)O)[C@@H](C)O)C(=O)N[C@@H](CO)C(=O)N[C@H](C(=O)N[C@@H](Cc1ccc(O)cc1)C(=O)N[C@@H](CC(C)C)C(=O)N[C@@H](CC(=O)O)C(=O)N[C@@H](CCCCN)C(=O)N[C@@H](CCC(N)=O)C(=O)N[C@@H](C)C(=O)N[C@@H](C)C(=O)NC(C)(C)C(=O)N[C@@H](CCC(=O)O)C(=O)N[C@@H](Cc1ccccc1)C(=O)N[C@H](C(=O)N[C@@H](CC(N)=O)C(=O)N[C@@H](Cc1c[nH]c2ccccc12)C(=O)N[C@@H](CC(C)C)C(=O)N[C@@H](CC(C)C)C(=O)N[C@@H](C)C(=O)NCC(N)=O)C(C)C)[C@@H](C)CC"}, "B2": {"name": "mt-323 (peptide)", "peptide": "Y[Aib]QGTFTSDYSIYLDKQAA[Aib]EFVNWLLAGGPSSGAPPPSK(Octanoyl)-NH2", "modifications": "N-terminus assumed", "SMILES": "CCCCCCCC(=O)NCCCC[C@H](NC(=O)[C@H](CO)NC(=O)[C@@H]1CCCN1C(=O)[C@@H]1CCCN1C(=O)[C@@H]1CCCN1C(=O)[C@H](C)NC(=O)CNC(=O)[C@H](CO)NC(=O)[C@H](CO)NC(=O)[C@@H]1CCCN1C(=O)CNC(=O)CNC(=O)[C@H](C)NC(=O)[C@H](CC(C)C)NC(=O)[C@H](CC(C)C)NC(=O)[C@H](Cc1c[nH]c2ccccc12)NC(=O)[C@H](CC(N)=O)NC(=O)[C@@H](NC(=O)[C@H](Cc1ccccc1)NC(=O)[C@H](CCC(=O)O)NC(=O)C(C)(C)NC(=O)[C@H](C)NC(=O)[C@H](C)NC(=O)[C@H](CCC(N)=O)NC(=O)[C@H](CCCCN)NC(=O)[C@H](CC(=O)O)NC(=O)[C@H](CC(C)C)NC(=O)[C@H](Cc1ccc(O)cc1)NC(=O)[C@@H](NC(=O)[C@H](CO)NC(=O)[C@H](Cc1ccc(O)cc1)NC(=O)[C@H](CC(=O)O)NC(=O)[C@H](CO)NC(=O)[C@@H](NC(=O)[C@H](Cc1ccccc1)NC(=O)[C@@H](NC(=O)CNC(=O)[C@H](CCC(N)=O)NC(=O)C(C)(C)NC(=O)[C@@H](N)Cc1ccc(O)cc1)[C@@H](C)O)[C@@H](C)O)[C@@H](C)CC)C(C)C)C(N)=O"}, "B3": {"name": "mt-283 (peptide)", "peptide": "Y[Aib]EGTFTSDK(Palmitoyl)SIYLDKQAA[Aib]EFVNWLLAG-NH2", "modifications": "N-terminus assumed", "SMILES": "CCCCCCCCCCCCCCCC(=O)NCCCC[C@H](NC(=O)[C@H](CC(=O)O)NC(=O)[C@H](CO)NC(=O)[C@@H](NC(=O)[C@H](Cc1ccccc1)NC(=O)[C@@H](NC(=O)CNC(=O)[C@H](CCC(=O)O)NC(=O)C(C)(C)NC(=O)[C@@H](N)Cc1ccc(O)cc1)[C@@H](C)O)[C@@H](C)O)C(=O)N[C@@H](CO)C(=O)N[C@H](C(=O)N[C@@H](Cc1ccc(O)cc1)C(=O)N[C@@H](CC(C)C)C(=O)N[C@@H](CC(=O)O)C(=O)N[C@@H](CCCCN)C(=O)N[C@@H](CCC(N)=O)C(=O)N[C@@H](C)C(=O)N[C@@H](C)C(=O)NC(C)(C)C(=O)N[C@@H](CCC(=O)O)C(=O)N[C@@H](Cc1ccccc1)C(=O)N[C@H](C(=O)N[C@@H](CC(N)=O)C(=O)N[C@@H](Cc1c[nH]c2ccccc12)C(=O)N[C@@H](CC(C)C)C(=O)N[C@@H](CC(C)C)C(=O)N[C@@H](C)C(=O)NCC(N)=O)C(C)C)[C@@H](C)CC"}, "B4": {"name": "mt-284 (peptide)", "peptide": "Y[Aib]EGTFTSDK(Stearoyl)SIYLDKQAA[Aib]EFVNWLLAG-NH2", "modifications": "N-terminus assumed", "SMILES": "CCCCCCCCCCCCCCCCCC(=O)NCCCC[C@H](NC(=O)[C@H](CC(=O)O)NC(=O)[C@H](CO)NC(=O)[C@@H](NC(=O)[C@H](Cc1ccccc1)NC(=O)[C@@H](NC(=O)CNC(=O)[C@H](CCC(=O)O)NC(=O)C(C)(C)NC(=O)[C@@H](N)Cc1ccc(O)cc1)[C@@H](C)O)[C@@H](C)O)C(=O)N[C@@H](CO)C(=O)N[C@H](C(=O)N[C@@H](Cc1ccc(O)cc1)C(=O)N[C@@H](CC(C)C)C(=O)N[C@@H](CC(=O)O)C(=O)N[C@@H](CCCCN)C(=O)N[C@@H](CCC(N)=O)C(=O)N[C@@H](C)C(=O)N[C@@H](C)C(=O)NC(C)(C)C(=O)N[C@@H](CCC(=O)O)C(=O)N[C@@H](Cc1ccccc1)C(=O)N[C@H](C(=O)N[C@@H](CC(N)=O)C(=O)N[C@@H](Cc1c[nH]c2ccccc12)C(=O)N[C@@H](CC(C)C)C(=O)N[C@@H](CC(C)C)C(=O)N[C@@H](C)C(=O)NCC(N)=O)C(C)C)[C@@H](C)CC"}, "B5": {"name": "mt-285 (peptide)", "peptide": "Y[Aib]EGTFTSDKSIYLDKQAA[Aib]EFVNWLLAG-NH2", "modifications": "N-terminus assumed", "SMILES": "CC[C@H](C)[C@H](NC(=O)[C@H](CO)NC(=O)[C@H](CCCCN)NC(=O)[C@H](CC(=O)O)NC(=O)[C@H](CO)NC(=O)[C@@H](NC(=O)[C@H](Cc1ccccc1)NC(=O)[C@@H](NC(=O)CNC(=O)[C@H](CCC(=O)O)NC(=O)C(C)(C)NC(=O)[C@@H](N)Cc1ccc(O)cc1)[C@@H](C)O)[C@@H](C)O)C(=O)N[C@@H](Cc1ccc(O)cc1)C(=O)N[C@@H](CC(C)C)C(=O)N[C@@H](CC(=O)O)C(=O)N[C@@H](CCCCN)C(=O)N[C@@H](CCC(N)=O)C(=O)N[C@@H](C)C(=O)N[C@@H](C)C(=O)NC(C)(C)C(=O)N[C@@H](CCC(=O)O)C(=O)N[C@@H](Cc1ccccc1)C(=O)N[C@H](C(=O)N[C@@H](CC(N)=O)C(=O)N[C@@H](Cc1c[nH]c2ccccc12)C(=O)N[C@@H](CC(C)C)C(=O)N[C@@H](CC(C)C)C(=O)N[C@@H](C)C(=O)NCC(N)=O)C(C)C"}, "B6": {"name": "mt-257 (peptide)", "peptide": "Y[Aib]QGTFTSDYSIYLDKQAA[Aib]EFVCWLLAG-NH2", "modifications": "N-terminus assumed", "SMILES": "CC[C@H](C)[C@H](NC(=O)[C@H](CO)NC(=O)[C@H](Cc1ccc(O)cc1)NC(=O)[C@H](CC(=O)O)NC(=O)[C@H](CO)NC(=O)[C@@H](NC(=O)[C@H](Cc1ccccc1)NC(=O)[C@@H](NC(=O)CNC(=O)[C@H](CCC(N)=O)NC(=O)C(C)(C)NC(=O)[C@@H](N)Cc1ccc(O)cc1)[C@@H](C)O)[C@@H](C)O)C(=O)N[C@@H](Cc1ccc(O)cc1)C(=O)N[C@@H](CC(C)C)C(=O)N[C@@H](CC(=O)O)C(=O)N[C@@H](CCCCN)C(=O)N[C@@H](CCC(N)=O)C(=O)N[C@@H](C)C(=O)N[C@@H](C)C(=O)NC(C)(C)C(=O)N[C@@H](CCC(=O)O)C(=O)N[C@@H](Cc1ccccc1)C(=O)N[C@H](C(=O)N[C@@H](CS)C(=O)N[C@@H](Cc1c[nH]c2ccccc12)C(=O)N[C@@H](CC(C)C)C(=O)N[C@@H](CC(C)C)C(=O)N[C@@H](C)C(=O)NCC(N)=O)C(C)C"}}, "note": "Where no end group is shown, it is not given here. [ ]: non-standard residue; d: D form. The star is where a group is joined. PEG 40 kDa = PEG (40 kDa) covalently attached to Cys; Stearoyl = CCCCCCCCCCCCCCCCCC(=O)*; Palmitoyl = CCCCCCCCCCCCCCCC(=O)*; Myristoyl = CCCCCCCCCCCCCC(=O)*; Octanoyl = CCCCCCCC(=O)*; Aib = CC(C)(N)C(=O)O"}
{"target": "T1, GIP receptor (UniProt P48546 22-466)", "T1 sequence (looked up)": "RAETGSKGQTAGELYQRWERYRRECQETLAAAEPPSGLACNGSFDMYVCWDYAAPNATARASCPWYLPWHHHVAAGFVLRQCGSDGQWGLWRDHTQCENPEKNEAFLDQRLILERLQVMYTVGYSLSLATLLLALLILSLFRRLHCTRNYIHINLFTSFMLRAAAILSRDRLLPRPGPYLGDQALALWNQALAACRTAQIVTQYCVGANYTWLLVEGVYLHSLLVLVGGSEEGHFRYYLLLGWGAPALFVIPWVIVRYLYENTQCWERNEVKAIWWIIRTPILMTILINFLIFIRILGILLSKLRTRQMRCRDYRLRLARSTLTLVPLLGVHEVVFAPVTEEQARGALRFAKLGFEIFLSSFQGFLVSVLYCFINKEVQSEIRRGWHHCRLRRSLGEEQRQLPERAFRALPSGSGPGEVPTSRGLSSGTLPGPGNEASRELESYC", "assay": "cell-based or functional assay", "units": {"EC50": "nM"}}
{"binder": "Y[Aib]EGTFTSDKSIYLDKQAA[Aib]EFVCWLLAGGPSSGAPPPS-NH2 (also: C-terminal amidation listed at position 40 of 39-residue chain)", "note": "[mt-338]", "EC50": 0.0234}
{"binder": "Y[Aib]EGTFTSDK(Myristoyl)SIYLDKQAA[Aib]EFVCWLLAGGPSSGAPPPS-NH2 (also: C-terminal amidation listed at position 40 of 39-residue chain)", "note": "[mt-337]", "EC50": 0.008}
{"binder": "B1", "EC50": 0.0133}
{"binder": "B2", "EC50": 0.0084}
{"binder": "B3", "EC50": 0.0122}
{"binder": "Y[Aib]EGTFTSDYSIYLDKQAA[Aib]EFVNWLLAGGPSSGAPPPSK-NH2", "note": "[mt-263]", "EC50": 0.0031}
{"binder": "B4", "EC50": 0.0186}
{"binder": "B5", "EC50": 0.028}
{"target": "glucagon receptor (UniProt P47871 26-477, limits assumed)", "sequence (P47871 26-477 limits assumed)": "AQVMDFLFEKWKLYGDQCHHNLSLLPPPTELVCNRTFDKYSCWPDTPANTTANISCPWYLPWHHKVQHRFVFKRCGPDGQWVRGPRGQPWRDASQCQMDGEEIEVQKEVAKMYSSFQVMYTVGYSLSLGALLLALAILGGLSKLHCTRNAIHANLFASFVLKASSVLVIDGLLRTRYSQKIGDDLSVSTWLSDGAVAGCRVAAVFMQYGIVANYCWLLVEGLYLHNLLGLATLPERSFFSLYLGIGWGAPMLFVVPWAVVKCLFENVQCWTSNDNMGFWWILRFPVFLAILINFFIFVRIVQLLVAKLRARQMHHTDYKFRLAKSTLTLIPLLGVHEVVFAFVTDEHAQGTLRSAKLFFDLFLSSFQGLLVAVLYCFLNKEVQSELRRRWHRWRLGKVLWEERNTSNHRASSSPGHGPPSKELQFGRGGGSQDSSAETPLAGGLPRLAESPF", "assay": "cell-based or functional assay", "units": {"EC50": "nM"}}
{"binder": "Y[Aib]QGTFTSDYSIYLDKQAA[Aib]EFVC(PEG 40 kDa)WLLAG-NH2", "note": "[mt-281]", "EC50": 0.282}
{"binder": "Y[Aib]EGTFTSDKSIYLDKQAA[Aib]EFVCWLLAGGPSSGAPPPS-NH2 (also: C-terminal amidation listed at position 40 of 39-residue chain)", "note": "[mt-338]", "EC50": 295}
{"binder": "Y[Aib]EGTFTSDYSIYLDKQAA[Aib]EFVNWLLAGGPSSGAPPPSC(PEG 40 kDa)-NH2", "note": "[mt-295]", "EC50": 87.3}
{"binder": "Y[Aib]EGTFTSDK(Myristoyl)SIYLDKQAA[Aib]EFVCWLLAGGPSSGAPPPS-NH2 (also: C-terminal amidation listed at position 40 of 39-residue chain)", "note": "[mt-337]", "EC50": 106}
{"binder": "B6", "EC50": 0.211}
{"binder": "Y[Aib]EGTFTSDYSIYLDKQAA[Aib]EFVNWLLAGGPSSGAPPPSK-NH2", "note": "[mt-263]", "EC50": 3.18}
{"binder": "Y[Aib]EGTFTSDYSIYLDKQAA[Aib]EFVNWLLAGGPSSGAPPPSC-NH2", "note": "[mt-256]", "EC50": 58.9}
